According to IntAct's records for PubMed 25893917:

B1: Twist-related protein 1 (Mus musculus), P26687 (parent)
chain: MMQDVSSSPVSPADDSLSNSEEEPDRQQPASGKRGARKRRSSRRSAGGSAGPGGATGGGIGGGDEPGSPAQGKRGKKSAGGGGGGGAGGGGGGGGGSSSGGGSPQSYEELQTQRVMANVRERQRTQSLNEAFAALRKIIPTLPSDKLSKIQTLKLAARYIDFLYQVLQSDELDSKMASCSYVAHERLSYAFSVWRMEGAWSMSASH
partner: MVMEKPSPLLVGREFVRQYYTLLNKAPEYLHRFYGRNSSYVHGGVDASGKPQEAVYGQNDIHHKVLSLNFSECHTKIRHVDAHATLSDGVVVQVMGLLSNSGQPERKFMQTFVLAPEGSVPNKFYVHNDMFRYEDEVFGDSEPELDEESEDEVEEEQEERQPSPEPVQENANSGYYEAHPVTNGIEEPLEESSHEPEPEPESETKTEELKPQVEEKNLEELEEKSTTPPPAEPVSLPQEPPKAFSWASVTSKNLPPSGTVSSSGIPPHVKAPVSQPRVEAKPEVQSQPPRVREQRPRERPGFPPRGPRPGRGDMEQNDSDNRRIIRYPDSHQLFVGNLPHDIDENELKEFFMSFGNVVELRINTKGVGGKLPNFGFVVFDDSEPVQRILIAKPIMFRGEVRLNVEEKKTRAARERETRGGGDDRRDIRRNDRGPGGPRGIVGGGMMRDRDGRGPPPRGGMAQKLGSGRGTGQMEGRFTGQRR

Variants of: B1
Details: with G3BP2, Q9UN86

Variant | effect of a mutation on the interaction
Y107E | decreasing interaction strength
